The assay addresses T1, trimeric murine IL-2 receptor (IL-2Rα, IL-2Rβ, and IL-2Rγ) on CTLL-2 cells (murine, UniProt P01590 22-268; P16297 27-539; P34902 23-369).
T1 sequence (looked up) 1: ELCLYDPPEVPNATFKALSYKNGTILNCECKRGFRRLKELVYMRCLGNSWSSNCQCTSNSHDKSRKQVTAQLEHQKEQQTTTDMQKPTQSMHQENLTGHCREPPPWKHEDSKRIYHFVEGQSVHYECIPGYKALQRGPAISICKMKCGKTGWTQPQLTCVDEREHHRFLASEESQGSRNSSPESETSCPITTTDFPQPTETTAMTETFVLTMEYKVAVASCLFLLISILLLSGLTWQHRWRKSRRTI
T1 sequence (looked up) 2: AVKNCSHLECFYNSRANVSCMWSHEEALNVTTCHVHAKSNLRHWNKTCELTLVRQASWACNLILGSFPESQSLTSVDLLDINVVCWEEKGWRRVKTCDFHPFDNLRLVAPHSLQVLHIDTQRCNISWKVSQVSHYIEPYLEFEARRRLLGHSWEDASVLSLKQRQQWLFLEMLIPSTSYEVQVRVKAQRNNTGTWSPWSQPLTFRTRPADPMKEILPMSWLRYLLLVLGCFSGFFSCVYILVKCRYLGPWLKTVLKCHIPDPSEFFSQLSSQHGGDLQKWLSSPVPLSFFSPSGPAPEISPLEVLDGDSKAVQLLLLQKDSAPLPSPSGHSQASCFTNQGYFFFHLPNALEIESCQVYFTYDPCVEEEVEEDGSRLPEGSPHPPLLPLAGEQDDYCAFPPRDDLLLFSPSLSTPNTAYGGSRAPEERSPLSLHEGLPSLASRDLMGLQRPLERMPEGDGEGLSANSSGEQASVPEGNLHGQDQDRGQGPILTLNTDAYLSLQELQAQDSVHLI
T1 sequence (looked up) 3: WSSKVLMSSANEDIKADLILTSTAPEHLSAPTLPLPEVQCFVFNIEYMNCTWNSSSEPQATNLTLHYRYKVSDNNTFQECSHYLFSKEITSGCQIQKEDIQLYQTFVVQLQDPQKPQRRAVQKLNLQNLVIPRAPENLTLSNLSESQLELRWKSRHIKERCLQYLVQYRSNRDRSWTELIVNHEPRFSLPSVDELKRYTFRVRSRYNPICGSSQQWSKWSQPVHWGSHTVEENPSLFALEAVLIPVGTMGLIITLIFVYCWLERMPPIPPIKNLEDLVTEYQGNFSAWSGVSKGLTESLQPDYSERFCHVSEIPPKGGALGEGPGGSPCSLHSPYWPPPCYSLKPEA
As to the kind of experiment: cell-based or functional assay.

B1: Fc-IL-2 heterodimer 117.46 (hIL-2v_Δ1-5_C125S), native IL-2Rα binding interface (Fc fusion)
chain 1: ESKYGPPCPPCPAPEAAGGPSVFLFPPKPKDTLMISRTPEVTCVVVDVSQEDPEVQFNWYVDGVEVHNAKTKPREEQFNSTYRVVSVLTVLHQDWLNGKEYKCKVSNKGLPSSIEKTISKAKGQPREPQVYTLPPSQEEMTKNQVSLWCLVKGFYPSDIAVEWESNGQPENNYKTTPPVLDSDGSFFLYSRLTVDKSRWQEGNVFSCSVMHEALHNHYTQKSLSLSLGGGGGSGGGGSGGGGSGGGGSSTKKTQLQLEHLLLDLQMILNGINNYKNPKLTRMLTFKFYMPKKATELKHLQCLEEELKPLEEVLNLAQSKNFHLRPRDLISNINVIVLELKGSETTFMCEYADETATIVEFLNRWITFSQSIISTLT
chain 2: ESKYGPPCPPCPAPEAAGGPSVFLFPPKPKDTLMISRTPEVTCVVVDVSQEDPEVQFNWYVDGVEVHNAKTKPREEQFNSTYRVVSVLTVLHQDWLNGKEYKCKVSNKGLPSSIEKTISKAKGQPREPQVYTLPPSQEEMTKNQVSLSCAVKGFYPSDIAVEWESNGQPENNYKTTPPVLDSDGSFFLVSRLTVDKSRWQEGNVFSCSVMHEALHNRFTQKSLSLSLGK
notes: hIgG4 knob-in-hole Fc heterodimer
Consider B1, for which the “STAT5 activation of CTLL-2 cells, EC50” value worked out at 3 pM.

Values taken from patent US20240269235A1 (Gilead, published 2024).
